Starred links: 1 amine or outer side, 2 acyl side, 3 side chain; linkers in the order of their positions; H or OH if unused. Positions of bridges follow the written chain, without caps; N, C: chain ends. Residues, ends and D or L forms follow the SMILES beside them. X4 = C(CCC[*:2])CC[*:1]; X2 = C(CC[*:1])CC[*:2]; X3 = C(CC[*:2])C[*:1]; X1 = C(C[*:1])C[*:2]
Test: circular dichroism
Conditions: deionized water; pH unbuffered; 20 °C; 25 uM
In the case of Ac-LCRNFMLHLVSMHDFLI-NH2, the helicity was 59.9%.
With `CC[C@H](C)[C@H](NC(=O)[C@H](CCC(N)=O)NC(=O)[C@@H](NC(=O)[C@@H]1CSCCCCCSC[C@H](NC(=O)[C@H](CC(C)C)NC(=O)[C@H](Cc2c[nH]c3ccccc23)NC(=O)[C@H](CCC(=O)O)NC(C)=O)C(=O)N[C@@H](CCC(=O)O)C(=O)N[C@@H](CCCCN)C(=O)N[C@@H]([C@@H](C)O)C(=O)N1)[C@@H](C)O)C(=O)N[C@@H](CCC(=O)O)C(=O)N[C@@H](CCC(=O)O)C(=O)N[C@@H](Cc1ccccc1)C(N)=O` (Ac-EWLCEKTCTQIEEF-NH2; linker 4-8 via X2) the helicity was 19.7%.
`CC[C@H](C)[C@H](NC(=O)[C@@H]1CSCCCCSC[C@H](NC(=O)[C@@H](NC(=O)[C@@H](NC(C)=O)C(C)C)[C@@H](C)CC)C(=O)N[C@@H](CCC(=O)O)C(=O)N[C@@H](CCC(=O)O)C(=O)N[C@@H](Cc2ccc(O)cc2)C(=O)N1)C(=O)N[C@@H](Cc1c[nH]c2ccccc12)C(=O)N[C@@H](CCCCN)C(=O)N[C@@H](CCCCN)C(=O)N[C@@H](CC(N)=O)C(=O)N[C@H](C(=O)N1CCC[C@H]1C(=O)N[C@@H](Cc1ccccc1)C(=O)N[C@@H](CC(C)C)C(N)=O)[C@@H](C)O` (Ac-VICEEYCIWKKNTPFL-NH2; linker 3-7 via X3) showed a helicity of 11.5%.
Work on `CC[C@H](C)[C@H](NC(=O)[C@H](CC(C)C)NC(=O)[C@H](Cc1ccccc1)NC(=O)[C@H](CC(=O)O)NC(=O)[C@H](Cc1c[nH]cn1)NC(=O)[C@H](CCSC)NC(=O)[C@H](CO)NC(=O)[C@@H](NC(=O)[C@@H]1CSCCCCCSC[C@H](NC(=O)[C@H](CC(N)=O)NC(=O)[C@H](CCCNC(=N)N)NC(=O)[C@H](CS)NC(=O)[C@H](CC(C)C)NC(C)=O)C(=O)N[C@@H](CCSC)C(=O)N[C@@H](CC(C)C)C(=O)N[C@@H](Cc2c[nH]cn2)C(=O)N1)C(C)C)C(N)=O` (Ac-LCRNCMLHCVSMHDFLI-NH2; linker 5-9 via X2) yielded a helicity of 61.6%.
With `CC[C@H](C)[C@H](NC(=O)[C@@H]1CSCCCSC[C@H](NC(=O)[C@@H](NC(=O)[C@@H](NC(C)=O)C(C)C)[C@@H](C)CC)C(=O)N[C@@H](CCC(=O)O)C(=O)N[C@@H](CCC(=O)O)C(=O)N[C@@H](Cc2ccc(O)cc2)C(=O)N1)C(=O)N[C@@H](Cc1c[nH]c2ccccc12)C(=O)N[C@@H](CCCCN)C(=O)N[C@@H](CCCCN)C(=O)N[C@@H](CC(N)=O)C(=O)N[C@H](C(=O)N1CCC[C@H]1C(=O)N[C@@H](Cc1ccccc1)C(=O)N[C@@H](CC(C)C)C(N)=O)[C@@H](C)O` (Ac-VICEEYCIWKKNTPFL-NH2; linker 3-7 via X1) the helicity was 12.7%.
`CC[C@H](C)[C@@H]1NC(=O)[C@@H](NC(=O)[C@H](CC(=O)O)NC(=O)[C@@H](NC(=O)[C@@H](NC(C)=O)[C@@H](C)O)C(C)C)CSCCCCCSC[C@@H](C(=O)N[C@@H](CC(C)C)C(=O)N[C@@H](CO)C(=O)N[C@H](C(=O)N[C@@H](CC(C)C)C(=O)N[C@@H](C)C(=O)N[C@@H](CCC(=O)O)C(=O)N[C@@H](CCC(=O)O)C(=O)N[C@H](C(=O)N2CCC[C@H]2C(=O)N[C@@H](CCC(N)=O)C(=O)N[C@@H](CC(N)=O)C(N)=O)C(C)C)C(C)C)NC(=O)[C@H](CO)NC(=O)[C@H](C)NC1=O` (Ac-TVDCIASCLSVLAEEVPQN-NH2; linker 4-8 via X2) gave a helicity of 9%.
In the case of Ac-EWLREKTITQIEEF-NH2, the helicity was 20.9%.
For `CC[C@H](C)[C@@H]1NC(=O)[C@@H](NC(=O)[C@H](Cc2ccc(O)cc2)NC(=O)[C@H](CCC(=O)O)NC(=O)[C@H](CCC(=O)O)NC(=O)[C@H](CC(N)=O)NC(=O)[C@@H](NC(=O)[C@@H](NC(C)=O)C(C)C)[C@@H](C)CC)CSCCCCCCSC[C@@H](C(=O)N[C@@H](CC(N)=O)C(=O)N[C@H](C(=O)N2CCC[C@H]2C(=O)N[C@@H](Cc2ccccc2)C(=O)N[C@@H](CC(C)C)C(N)=O)[C@@H](C)O)NC(=O)[C@H](CCCCN)NC(=O)[C@H](Cc2c[nH]c3ccccc23)NC1=O` (Ac-VINEEYCIWKCNTPFL-NH2; linker 7-11 via X4), the helicity was 19.4%.
